# In paper PMC7948479, “Allostery in the nitric oxide dioxygenase mechanism of flavohemoglobin” (The Journal of Biological Chemistry, 2020):
# Like-named read-outs stand apart in the source and are kept apart here.
# B1: WT: wild-type E. coli flavohemoglobin (flavoHb), an NO dioxygenase (NOD) (protein, UniProt P24232 1-396, looked up)
# Flavohemoprotein: MLDAQTIATVKATIPLLVETGPKLTAHFYDRMFTHNPELKEIFNMSNQRNGDQREALFNAIAAYASNIENLPALLPAVEKIAQKHTSFQIKPEQYNIVGEHLLATLDEMFSPGQEVLDAWGKAYGVLANVFINREAEIYNENASKAGGWEGTRDFRIVAKTPRSALITSFELEPVDGGAVAEYRPGQYLGVWLKPEGFPHQEIRQYSLTRKPDGKGYRIAVKREEGGQVSNWLHNHANVGDVVKLVAPAGDFFMAVADDTPVTLISAGVGQTPMLAMLDTLAKAGHTAQVNWFHAAENGDVHAFADEVKELGQSLPRFTAHTWYRQPSEADRAKGQFDSEGLMDLSKLEGAFSDPTMQFYLCGPVGFMQFTAKQLVDLGVKQENIHYECFGPHKVL
# Key:
# E. coli flavoHb-NOD [1] = settings: entry of O2 into the LT, value assumed for fitting, cited from earlier work
# E. coli flavoHb-NOD [2] = target: T1, E. coli flavoHb-NOD (Escherichia coli, UniProt P24232); settings: read-out: theoretical Km(O2) (Vmax/k'O2); cited from earlier work
# [3] = design: method as in PMID 10777548, PMID 10922365; settings: cited from earlier work
# [4] = NO reductase activity (anaerobic); assay type: biochemical
# Experimental: NADH oxidase activity was followed spectrophotometrically at 340 nm in a 1.0-ml cuvette containing 90 mM Tris chloride buffer, pH 8.2, 100 μM NADH, 200 μM O2, 0.1 μM FAD, 100 μg/ml BSA, and 0.3 mM EDTA and incubated at 37 °C. […] TMAO reductase activity was assayed by following the absorbance decrease at 340 nm in a 1.0-ml anaerobic reaction containing 12 U Aspergillus niger glucose oxidase, 5 mM glucose, 260 U catalase, 400 mM TMAO, 100 μM NADH, 0.1 μM FAD, 100 μg/ml BSA, and 0.3 mM EDTA in 90 mM Tris chloride pH 8.2 and incubated at 37 °C. […] Methyl viologen reductase activity was assayed by following the formation of the blue cation radical at 603 nm and by applying an extinction coefficient of 13,300 M^−1 cm^−1 in a 1.0-ml anaerobic reaction buffered with 10 mM potassium phosphate, pH 7.0, and containing 12 U glucose oxidase, 5 mM glucose, 260 U catalase, 100 μM NADH, 0.1 μM FAD, 100 μg/ml BSA, 0.3 mM EDTA, and 200 mM sodium chloride and incubated at 37 °C. NO reductase activity was assayed amperometrically at 37 °C in a 1.0-ml anaerobic reaction containing 2 μM NO, 100 μM NADH, 0.1 μM FAD, 12 U glucose oxidase, 5 mM glucose, 260 U catalase, 100 μg/ml BSA, and 0.3 mM EDTA buffered with 10 mM potassium phosphate pH 7.0. CO effects were tested at a final concentration of 50 μM as diluted from a 1 mM stock in water. […]
# E. coli flavoHb-NOD [5] = target: T1, E. coli flavoHb-NOD; assay type: biochemical; design: made in house; host or cells: E. coli hmp deletion strain AG103 carrying pUC19hmp
# Excerpt: We have formulated a steady-state velocity equation for the catalytic cycle with the activating trigger step (KT) (Equation 1).(1) v= Vmax(a) where a=([NO]^2[O2]^2/K1K2K3KTK4)/(1+([O2]/K1)+([O2]^2/K1K2)+(([O2]^2[NO])/K1K2K3)+(([O2]^2[NO])/K1K2K3KT)+(([O2]^2[NO]^2)/K1K2K3KTK4))
# (2) v= Vmax(a)(b) where b=[NO]/(K3+([NO](1+((K2/[O2])(1+([NO]/Ki(NO)))))))
# In addition, we have introduced a factor and equilibrium constant Ka(O2) for rare situations in which O2 causes an additional NO-independent activation of catalysis possibly by occupying unique binding sites or cavities (Equation 5).
# NOD activity was measured amperometrically in 100 mM phosphate buffer, pH 7.0, containing 0.3 mM EDTA, 100 μg/ml bovine serum albumin (BSA) (Fraction V), 100 μM NADH, 0.1 μM FAD with NO, O2, and N2 mixtures added as described ([4], [72]). NADH oxidase activity was followed spectrophotometrically at 340 nm in a 1.0-ml cuvette containing 90 mM Tris chloride buffer, pH 8.2, 100 μM NADH, 200 μM O2, 0.1 μM FAD, 100 μg/ml BSA, and 0.3 mM EDTA and incubated at 37 °C. Cytochrome b5 reductase activity was assayed at 37 °C by following the rate of absorbance increase at 555 nm in a 1.0-ml reaction buffered with 90 mM Tris chloride, pH 8.2, and containing 10 μM ferric cytochrome b5, 200 μM O2, 20 μM NADH, 0.1 μM FAD, 100 μg/ml BSA, and 0.3 mM EDTA. TMAO reductase activity was assayed by following the absorbance decrease at 340 nm in a 1.0-ml anaerobic reaction containing 12 U Aspergillus niger glucose oxidase, 5 mM glucose, 260 U catalase, 400 mM TMAO, 100 μM NADH, 0.1 μM FAD, 100 μg/ml BSA, and 0.3 mM EDTA in 90 mM Tris chloride pH 8.2 and incubated at 37 °C. Ngb reductase activity was assayed by following the absorbance increase at 424 nm in a 1.0-ml anaerobic reaction containing 12 U glucose oxidase, 5 mM glucose, 260 U catalase, 5 μM Ngb, 50 μM NADH, 0.1 μM FAD, 100 μg/ml BSA, and 0.3 mM EDTA in 90 mM Tris chloride buffer, pH 8.2, and incubated at 37 °C. Methyl viologen reductase activity was assayed by following the formation of the blue cation radical at 603 nm and by applying an extinction coefficient of 13,300 M^−1 cm^−1 in a 1.0-ml anaerobic reaction buffered with 10 mM potassium phosphate, pH 7.0, and containing 12 U glucose oxidase, 5 mM glucose, 260 U catalase, 100 μM NADH, 0.1 μM FAD, 100 μg/ml BSA, 0.3 mM EDTA, and 200 mM sodium chloride and incubated at 37 °C. NO reductase activity was assayed amperometrically at 37 °C in a 1.0-ml anaerobic reaction containing 2 μM NO, 100 μM NADH, 0.1 μM FAD, 12 U glucose oxidase, 5 mM glucose, 260 U catalase, 100 μg/ml BSA, and 0.3 mM EDTA buffered with 10 mM potassium phosphate pH 7.0. CO effects were tested at a final concentration of 50 μM as diluted from a 1 mM stock in water. All activities are reported relative to the heme content of flavoHb.
# Rate constants were estimated from the model kinetic equation using Python programming with successive approximations to optimize fits with varying NO and O2 concentrations. Vmax, K1, K2, KT, and Kii(NO) values were treated as independent variables for a given flavoHb while allowing K3, K4, and Ki(NO) to vary over limited ranges with varying O2 concentration. Kii(NO) was estimated from NO inhibition at saturating O2 concentrations.
molecule,measurement,setting,value
B1,K1,E. coli flavoHb-NOD [1]; 20 °C,2 (2) Micromolar
same,K1,E. coli flavoHb-NOD [1]; 37 °C,2 (2) Micromolar
same,Km,E. coli flavoHb-NOD [2],~2 µM
same,NO elimination via reduction,[3],≤ 0.1 s⁻¹
same,Vmax for Fe^2+NO reduction,[3],0.1 s⁻¹
same,NO reductase activity,"[4]; 37 °C, 2 μM NO, anaerobic",0.19 s⁻¹
same,time for 90% reversal in the steady state,[4]; with NO elimination via reduction,23 s
same,Vmax/K3,E. coli flavoHb-NOD [5],2.3e+09 M⁻¹ s⁻¹
same,bimolecular rate constant of ferric–superoxide complex with internalized NO,E. coli flavoHb-NOD [5],10^10 M^−1 s^−1
same,k'NOD estimated from the Vmax/K4 ratio,E. coli flavoHb-NOD [5],1 to 2 × 10^10 M^−1 s^−1
same,velocity of NOD activity,E. coli flavoHb-NOD [5],8 s⁻¹
same,Ki,E. coli flavoHb-NOD [5]; read-out: Ki(NO) for NO competition with O2 for LT entry,300 to 1200 nM
